Test results reported in patent US20180155451A1 (published 2018).

Legend:
[1] = target: T1, FcγRIIIa extracellular domain with C-terminal His tag (human, UniProt P08637 17-208); assay: SPR (Biacore), captured antibody, FcγR as analyte; relative to GpH7-A5/GpH7-B3/GpL16-k0 = 100
T1 construct: extracellular domain; also called FcgRIIIa; 3a; not shown: His tag at the C terminus
Protocol: (§1) Analysis of interaction between objective antibody and the FcγR was carried out using Biacore T100 (GE Healthcare). HBS-EP+ (GE Healthcare) was used as the running buffer, and the measurement temperature was set to 25° C. Chips produced by immobilizing the antigen peptide by the amine coupling method to a Series S Sencor Chip CM5 (GE Healthcare), or alternatively, chips produced by allowing preliminarily biotinylated antigen peptides to interact with and immobilize onto a Series S Sensor Chip SA (certified) (GE Healthcare) were used. Antibodies of interest were captured onto an antigen peptide-immobilized chip, and allowed to interact to each FcγR diluted with running buffer. To regenerate and repeatedly use the chip, the antibodies captured on the chip were washed off by reacting 10 mM glycine-HCl, pH 1.5.
(§2) The FcγR-binding activity of each antibody was assessed primarily using as an indicator the FcγR-binding activity and dissociation constant for FcγR.

[2] = target: T2, FcγRIIb extracellular domain with C-terminal His tag (human, UniProt P31994 43-217); assay: as above
T2 construct: extracellular domain; also called FcgRIIb; 2b; not shown: His tag at the C terminus
T2 sequence (looked up): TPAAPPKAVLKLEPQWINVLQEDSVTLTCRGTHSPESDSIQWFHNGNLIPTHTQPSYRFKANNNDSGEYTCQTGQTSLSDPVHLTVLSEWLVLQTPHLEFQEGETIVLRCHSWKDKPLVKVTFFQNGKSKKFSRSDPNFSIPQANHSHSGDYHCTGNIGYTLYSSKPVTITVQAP
Protocol: as §1, §2

T1 sequence (P08637 17-208): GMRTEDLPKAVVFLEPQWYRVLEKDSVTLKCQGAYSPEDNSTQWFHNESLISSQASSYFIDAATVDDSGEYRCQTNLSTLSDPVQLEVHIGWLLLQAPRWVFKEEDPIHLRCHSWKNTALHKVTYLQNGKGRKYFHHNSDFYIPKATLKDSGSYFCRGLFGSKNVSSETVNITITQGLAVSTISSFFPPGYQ

He/Con_3a (IIIa binding) [1] | He/Con_2b (IIb binding) [2] | Binder
46.7 % of HeCon Ab | 312 % of HeCon Ab | GpH7-A5/GpH7-B3 variant P238_04F/GpL16-k0 (heterodimerized antibody, He Ab) (antibody, human IgG1, kappa, Anti-glypican-3 IgG1; the alteration is in the GpH7-B3 chain only; also called P238F) heavy 1: not shown heavy 2: not shown light: DIVMTQSPLSLPVTPGEPASISCQASESLVHSNRNTYLHWYLQKPGQSPQLLIYKVSNRFSGVPDRFSGSGSGTDFTLKISRVEAEDVGVYYCSQNTHVPPTFGQGTKVEIERTVAAPSVFIFPPSDEQLKSGTASVVCLLNNFYPREAKVQWKVDNALQSGNSQESVTEQDSKDSTYSLSSTLTLSKADYEKHKVYACEVTHQGLSSPVTKSFNRGEC
30.5 % of HeCon Ab | 174 % of HeCon Ab | GpH7-A5/GpH7-B3 variant P238_06M/GpL16-k0 (heterodimerized antibody, He Ab) (antibody, human IgG1, kappa, Anti-glypican-3 IgG1; the alteration is in the GpH7-B3 chain only; also called P238M) heavy 1: not shown heavy 2: not shown light: DIVMTQSPLSLPVTPGEPASISCQASESLVHSNRNTYLHWYLQKPGQSPQLLIYKVSNRFSGVPDRFSGSGSGTDFTLKISRVEAEDVGVYYCSQNTHVPPTFGQGTKVEIERTVAAPSVFIFPPSDEQLKSGTASVVCLLNNFYPREAKVQWKVDNALQSGNSQESVTEQDSKDSTYSLSSTLTLSKADYEKHKVYACEVTHQGLSSPVTKSFNRGEC
27.8 % of HeCon Ab | 80 % of HeCon Ab | GpH7-A5/GpH7-B3 variant P238_07I/GpL16-k0 (heterodimerized antibody, He Ab) (antibody, human IgG1, kappa, Anti-glypican-3 IgG1; the alteration is in the GpH7-B3 chain only; also called P238I) heavy 1: not shown heavy 2: not shown light: DIVMTQSPLSLPVTPGEPASISCQASESLVHSNRNTYLHWYLQKPGQSPQLLIYKVSNRFSGVPDRFSGSGSGTDFTLKISRVEAEDVGVYYCSQNTHVPPTFGQGTKVEIERTVAAPSVFIFPPSDEQLKSGTASVVCLLNNFYPREAKVQWKVDNALQSGNSQESVTEQDSKDSTYSLSSTLTLSKADYEKHKVYACEVTHQGLSSPVTKSFNRGEC
75.5 % of HeCon Ab | 204 % of HeCon Ab | GpH7-A5/GpH7-B3 variant P238_08L/GpL16-k0 (heterodimerized antibody, He Ab) (antibody, human IgG1, kappa, Anti-glypican-3 IgG1; the alteration is in the GpH7-B3 chain only; also called P238L) heavy 1: not shown heavy 2: not shown light: DIVMTQSPLSLPVTPGEPASISCQASESLVHSNRNTYLHWYLQKPGQSPQLLIYKVSNRFSGVPDRFSGSGSGTDFTLKISRVEAEDVGVYYCSQNTHVPPTFGQGTKVEIERTVAAPSVFIFPPSDEQLKSGTASVVCLLNNFYPREAKVQWKVDNALQSGNSQESVTEQDSKDSTYSLSSTLTLSKADYEKHKVYACEVTHQGLSSPVTKSFNRGEC
106 % of HeCon Ab | 221 % of HeCon Ab | GpH7-A5/GpH7-B3 variant P238_09D/GpL16-k0 (heterodimerized antibody, He Ab) (antibody, human IgG1, kappa, Anti-glypican-3 IgG1; the alteration is in the GpH7-B3 chain only; also called P238D) heavy 1: not shown heavy 2: not shown light: DIVMTQSPLSLPVTPGEPASISCQASESLVHSNRNTYLHWYLQKPGQSPQLLIYKVSNRFSGVPDRFSGSGSGTDFTLKISRVEAEDVGVYYCSQNTHVPPTFGQGTKVEIERTVAAPSVFIFPPSDEQLKSGTASVVCLLNNFYPREAKVQWKVDNALQSGNSQESVTEQDSKDSTYSLSSTLTLSKADYEKHKVYACEVTHQGLSSPVTKSFNRGEC
105 % of HeCon Ab | 232 % of HeCon Ab | GpH7-A5/GpH7-B3 variant P238_10E/GpL16-k0 (heterodimerized antibody, He Ab) (antibody, human IgG1, kappa, Anti-glypican-3 IgG1; the alteration is in the GpH7-B3 chain only; also called P238E) heavy 1: not shown heavy 2: not shown light: DIVMTQSPLSLPVTPGEPASISCQASESLVHSNRNTYLHWYLQKPGQSPQLLIYKVSNRFSGVPDRFSGSGSGTDFTLKISRVEAEDVGVYYCSQNTHVPPTFGQGTKVEIERTVAAPSVFIFPPSDEQLKSGTASVVCLLNNFYPREAKVQWKVDNALQSGNSQESVTEQDSKDSTYSLSSTLTLSKADYEKHKVYACEVTHQGLSSPVTKSFNRGEC
10.4 % of HeCon Ab | 18.1 % of HeCon Ab | GpH7-A5/GpH7-B3 variant P238_11K/GpL16-k0 (heterodimerized antibody, He Ab) (antibody, human IgG1, kappa, Anti-glypican-3 IgG1; the alteration is in the GpH7-B3 chain only; also called P238K) heavy 1: not shown heavy 2: not shown light: DIVMTQSPLSLPVTPGEPASISCQASESLVHSNRNTYLHWYLQKPGQSPQLLIYKVSNRFSGVPDRFSGSGSGTDFTLKISRVEAEDVGVYYCSQNTHVPPTFGQGTKVEIERTVAAPSVFIFPPSDEQLKSGTASVVCLLNNFYPREAKVQWKVDNALQSGNSQESVTEQDSKDSTYSLSSTLTLSKADYEKHKVYACEVTHQGLSSPVTKSFNRGEC
12.2 % of HeCon Ab | 51.4 % of HeCon Ab | GpH7-A5/GpH7-B3 variant P238_12R/GpL16-k0 (heterodimerized antibody, He Ab) (antibody, human IgG1, kappa, Anti-glypican-3 IgG1; the alteration is in the GpH7-B3 chain only; also called P238R) heavy 1: not shown heavy 2: not shown light: DIVMTQSPLSLPVTPGEPASISCQASESLVHSNRNTYLHWYLQKPGQSPQLLIYKVSNRFSGVPDRFSGSGSGTDFTLKISRVEAEDVGVYYCSQNTHVPPTFGQGTKVEIERTVAAPSVFIFPPSDEQLKSGTASVVCLLNNFYPREAKVQWKVDNALQSGNSQESVTEQDSKDSTYSLSSTLTLSKADYEKHKVYACEVTHQGLSSPVTKSFNRGEC
44.9 % of HeCon Ab | 70.4 % of HeCon Ab | GpH7-A5/GpH7-B3 variant P238_13S/GpL16-k0 (heterodimerized antibody, He Ab) (antibody, human IgG1, kappa, Anti-glypican-3 IgG1; the alteration is in the GpH7-B3 chain only; also called P238S) heavy 1: not shown heavy 2: not shown light: DIVMTQSPLSLPVTPGEPASISCQASESLVHSNRNTYLHWYLQKPGQSPQLLIYKVSNRFSGVPDRFSGSGSGTDFTLKISRVEAEDVGVYYCSQNTHVPPTFGQGTKVEIERTVAAPSVFIFPPSDEQLKSGTASVVCLLNNFYPREAKVQWKVDNALQSGNSQESVTEQDSKDSTYSLSSTLTLSKADYEKHKVYACEVTHQGLSSPVTKSFNRGEC
